# Reference: the RNAGym collection of RNA variant scans (doi:10.7554/elife.90254)
# B1: OR4K15 (parent)
# chain: GUUAACGGUCAUAGGCCAUGGAAACUAGGAGCACCAUUUCGCUGCCAGUGAAGAAAUGAACAAAGAAAAUCUGGGCCAGGCAGGCAUCAAAAGAAAUAGUCUUGCGCUCAACCAGAAAGUCUGUAAUCAUUUUAAGGGUA
# Variants of: B1
# Test: self-cleavage, relative activity (ratio to wild type); higher = more cleavage; in vitro, sequencing; the parent is a self-cleaving ribozyme
row,Variant,self-cleavage
1,GCUAACGGUCAUAGGCCAUGGAAACUAGGAGCACCAUUUCGCUGCCAGUGAAGAAAUGAACAAAGAAAGUCUGGGCCAGGCAGGCAUCAAAAGAAAUAGUCUUGCGCUCAACCAGAAAGUCUGUAAUCAUUUUAAGGGUA,0.91
2,GCUAACGGUCAUAGGCCAUGGAAACUAGGAGCACCAUUUCGCUGCCAGUGAAAAAAUGAACAAAGAAAAUCUGGGCCAGGCAGGCAUCAAAAGAAAUAGUCUUGCGCUCAACCAGAAAGUCUGUAAUCAUUUUAAGGGUA,1.18
3,GCUAACGGUCAUAGGCCAUGGAAACUAGGAGCACCAUUUCGCUGCCAGUGAAGAAAUGAACAAAGAAAAUCUGGGCCAGGCAGGCAUCAAAAGAAAUAGUCUUGUGCUCAACCAGAAAGUCUGUAAUCAUUUUAAGGGUA,0.03
4,GCUAACGGUCAUAGGCCAUGGAAACUAGGAGCACCAUUUCGCUGCCAGUGAAGAAAUGAACAAAGAAAAUCUGGGCCAGGCAAGCAUCAAAAGAAAUAGUCUUGCGCUCAACCAGAAAGUCUGUAAUCAUUUUAAGGGUA,0.87
5,GCUAACGGUCAUAGGCCAUGGAAACUAGGAGCACCAUUUCGCUGCCAGUGAAGAAAUGAACAAAGAAAAUCUGGGCCAGGCAGGCAUCAAAAGAAAUAGUCUUGCGCUCAACCUGAAAGUCUGUAAUCAUUUUAAGGGUA,0.09
6,GCUAACGGUCAUAGGCCAUGGAAACUAGGAGCACCAUUUCGCUGCCAGUGAAGAAAUGAACAAAGAAAAUCUGGGCCAGGCAGGCAUCAAAAGAAAUAGUCUUGCGCUCAGCCAGAAAGUCUGUAAUCAUUUUAAGGGUA,0.04
7,GCUAACGGUCAUAGGCCAUGGAAACUAGGAGCACCAUUUCGCUGCCAGUGAAGAAAUGAACAAAGAAAAUCUGGGCCAGGCAGGCAUCAAGAGAAAUAGUCUUGCGCUCAACCAGAAAGUCUGUAAUCAUUUUAAGGGUA,1.08
8,GCUAACGGUCAUAGGCCAUGGAAACUAGGAGCACCAUUUCGCUGCCAGUGAAGAAAUGAACAAAGAAAAUCUGGGCCAGGCAGGCAUCAAUAGAAAUAGUCUUGCGCUCAACCAGAAAGUCUGUAAUCAUUUUAAGGGUA,0.81
9,GCUAACGGUCAUAGGCCAUGAAAACUAGGAGCACCAUUUCGCUGCCAGUGAAGAAAUGAACAAAGAAAAUCUGGGCCAGGCAGGCAUCAAAAGAAAUAGUCUUGCGCUCAACCAGAAAGUCUGUAAUCAUUUUAAGGGUA,0.98
10,GCUAACGGUCAUAGGCCAUGGAAACUAGGAGCACCAUUUCGCUGCCAGUGAAGAAAUGAACAAAGAAAAUCUGGGCCAGGCAGGCAUCAAAAGAACUAGUCUUGCGCUCAACCAGAAAGUCUGUAAUCAUUUUAAGGGUA,1.85
11,GCUAACGGUCAUAGGCCAUGGAAACUAGGAGCACCAUUUCGCUGGCAGUGAAGAAAUGAACAAAGAAAAUCUGGGCCAGGCAGGCAUCAAAAGAAAUAGUCUUGCGCUCAACCAGAAAGUCUGUAAUCAUUUUAAGGGUA,1.29
12,GCUAACGGUCAUAGGCCAUGGAAACUAGGAGCACCAUUUCGCUGCCAGUGAAGAAAUGAACAAAGAAAAUCUGGGUCAGGCAGGCAUCAAAAGAAAUAGUCUUGCGCUCAACCAGAAAGUCUGUAAUCAUUUUAAGGGUA,0.23
13,GCUAACGGUCAUAGGCCAUGGAAACUAGGAGCACCAUUUCGCUGCCAGUGAAGAAAUGAACAAAGAAAAUCUGGGCCGGGCAGGCAUCAAAAGAAAUAGUCUUGCGCUCAACCAGAAAGUCUGUAAUCAUUUUAAGGGUA,0.21
14,GCUAACGGUCAUAGGCCAUGGAAACUAGGAGCACCAUUUCGCUGCCAUUGAAGAAAUGAACAAAGAAAAUCUGGGCCAGGCAGGCAUCAAAAGAAAUAGUCUUGCGCUCAACCAGAAAGUCUGUAAUCAUUUUAAGGGUA,0.43
15,GCUAACGGUCAUAGGCCAUGGAAACUAGGAGCACCAUUUCGCUGCCAGUGAAGAAAUGAACAAAGAAAAUCUGGGCCAGGCAGGCAUCAAAAGAAAUAGUCUUGCGCUCAACCAGAAAAUCUGUAAUCAUUUUAAGGGUA,1.05
16,GCUAACGGUCAUAGGCCAUGGAAACUAGGAGCACCAUUUCACUGCCAGUGAAGAAAUGAACAAAGAAAAUCUGGGCCAGGCAGGCAUCAAAAGAAAUAGUCUUGCGCUCAACCAGAAAGUCUGUAAUCAUUUUAAGGGUA,1.29
17,GCUAACGGCCAUAGGCCAUGGAAACUAGGAGCACCAUUUCGCUGCCAGUGAAGAAAUGAACAAAGAAAAUCUGGGCCAGGCAGGCAUCAAAAGAAAUAGUCUUGCGCUCAACCAGAAAGUCUGUAAUCAUUUUAAGGGUA,0.83
18,GCUAACGGACAUAGGCCAUGGAAACUAGGAGCACCAUUUCGCUGCCAGUGAAGAAAUGAACAAAGAAAAUCUGGGCCAGGCAGGCAUCAAAAGAAAUAGUCUUGCGCUCAACCAGAAAGUCUGUAAUCAUUUUAAGGGUA,0.57
19,GCUAACGGUCACAGGCCAUGGAAACUAGGAGCACCAUUUCGCUGCCAGUGAAGAAAUGAACAAAGAAAAUCUGGGCCAGGCAGGCAUCAAAAGAAAUAGUCUUGCGCUCAACCAGAAAGUCUGUAAUCAUUUUAAGGGUA,0.74
20,GCUAACGGUCAUAGGCCAUGGAAACUAGGAGCACCAUUUCGUUGCCAGUGAAGAAAUGAACAAAGAAAAUCUGGGCCAGGCAGGCAUCAAAAGAAAUAGUCUUGCGCUCAACCAGAAAGUCUGUAAUCAUUUUAAGGGUA,1.46
21,GCUAACGGUCAUAGGCCAUGGAAACUAGGAGCACCAUUUCGCUGCCAGUGAAGAAAUGAACAAAGAAAAUCUGGGCCAGGCAGGCAUCAAAAGAAAUAGUCUUGCGCUCAACCAGAAAGUCUGUAAUCAUUUUAAGGGUU,1.55

row,Variant,self-cleavage
1,GCUAACGGUCAUAGGCCAUGGAAACUAGGAGCACCAUUUCGCUGCCAGUGAAGAAAUGAACAAGGAAAAUCUGGGCCAGGCAGGCAUCAAAAGAAAUAGUCUUGCGCUCAACCAGAAAGUCUGUAAUCAUUUUAAGGGUA,1.48
2,GCUAACGGUCAUAGGCCAUGGAAACUAGGAGCACCAUUUCGCUGCCAGUGAAGAAAUGAACAAAGAAAAUCUGGGCCAGGCAGGCAUCAAAAGAAAUAGUCUUGCGCUCAACCAGAAAGUCUGUAGUCAUUUUAAGGGUA,1.22
3,GCUAACGGUAAUAGGCCAUGGAAACUAGGAGCACCAUUUCGCUGCCAGUGAAGAAAUGAACAAAGAAAAUCUGGGCCAGGCAGGCAUCAAAAGAAAUAGUCUUGCGCUCAACCAGAAAGUCUGUAAUCAUUUUAAGGGUA,1.94
4,GCUAACGGUCAUAGGCCAUGGAAACUAGGAGCACCAUUUCGCUGCCAGUGAAGAAAUGAACAAAGUAAAUCUGGGCCAGGCAGGCAUCAAAAGAAAUAGUCUUGCGCUCAACCAGAAAGUCUGUAAUCAUUUUAAGGGUA,0.2
5,GCUAACGGUCAUAGGCCAUGGAAACUAGGAGCACCAUUUCGCUGCCAGUGAAGAAAUGAACAAAGGAAAUCUGGGCCAGGCAGGCAUCAAAAGAAAUAGUCUUGCGCUCAACCAGAAAGUCUGUAAUCAUUUUAAGGGUA,1.45
6,GCUAACGGUCAUAGGCCAUGGAAACUAGGAGCACCAUUUCGCUGCCAGUGAAGAAAUGAACAAAGAAAAUCUAGGCCAGGCAGGCAUCAAAAGAAAUAGUCUUGCGCUCAACCAGAAAGUCUGUAAUCAUUUUAAGGGUA,0.22
7,GCUAACGGUCAUAGGCCAUGGAAACUAGGAGCACCAUUUCGCUGCCAGUGAAGAAAUGAACAAAGAAAAUCUGGGCCAGGCAGGCAUCAAAAGAAAUAGUCUUGCGCUCAACCAGAUAGUCUGUAAUCAUUUUAAGGGUA,1.05
8,GCUAACGGUCAUAGGCCAUGGAAACUAGGAGCACCAUUUCGCUGCCAGUGAAGAAAUGAACAAAGAAAAUCUGGGCCAGGCAGGCAUCAAAAGAAAUAGUCUUGCGCUCAACCAGGAAGUCUGUAAUCAUUUUAAGGGUA,0.6
9,GCUAACGGUCAUAGGCCAUGGAAACUAGGAGCACCAUUUCGCUGCCAGUGAAGAAAUGAACAAAGAAAAUCUGGGCCAGGCAGGCAUCAAAAGAAAUAGUCUUGCGCUCAACCAGAAGGUCUGUAAUCAUUUUAAGGGUA,0.88
10,GCUAACGGUCAUAGGCCAUGGAAACUAGGAGCACCAUUUCGCUGCCAGUGAAGAAAUGAACAAAGAAAAUCUGGGCCAGGCAGGCAUCAAAAGAAAUAGUCUUGCGCUCAACCAGAAUGUCUGUAAUCAUUUUAAGGGUA,0.44
11,GCUAACGGUCAUAGGCCAUGGAAACUAGGAGCACCAUUUCGCUGCCAGUGAAGAAAUGAACAAAGAAAAUCUGGGCCAGGCAGGCAUCAAAAGAAAUAGUCUUGCGCUCAACCAGAAAGUCUGUAAUCAUUUUGAGGGUA,1.59
12,GCUAACGGUCAUAGGCCAUGGAAACUAGGAGCACCAUUUCGCUGCCAGUGAAGAAAUGAACAAAGAAAAUCUGGGCCAGGCAGGCAUCAAAAGAAAUAGUCUUGCGCUCAACCAGAAAGUCUGUAAUCAUUUUUAGGGUA,0.69
13,GCUAACGGUCAUAGGCCAUGGAAACUAGAAGCACCAUUUCGCUGCCAGUGAAGAAAUGAACAAAGAAAAUCUGGGCCAGGCAGGCAUCAAAAGAAAUAGUCUUGCGCUCAACCAGAAAGUCUGUAAUCAUUUUAAGGGUA,1.36
14,GCUAACGGUCAUAGGCCAUGGAAACUAGGAGCACCAUUUCGCUGCCAGUGAAGAAAUGAACAAAGAAAAUCUGGGCCAGGCAGGCAUCAAAAGUAAUAGUCUUGCGCUCAACCAGAAAGUCUGUAAUCAUUUUAAGGGUA,1.48
15,GCUAACGGUCAUAGGCCAUGGAAACUAGGAGCACCAUUUCGCUGCCAGUGAAGAAAUGAACAAAGAAAAUCUGGGCCAGGCAGGCAUCAAAAGGAAUAGUCUUGCGCUCAACCAGAAAGUCUGUAAUCAUUUUAAGGGUA,1.08
16,GCUAACGGUCAUAGGCCAUGGAAACUAGGAGCACCAUUUCGCUGCCAGUGAAGAAAUGAACAAAGAAAAUCUGGGCCAGGCAGGCAUCAGAAGAAAUAGUCUUGCGCUCAACCAGAAAGUCUGUAAUCAUUUUAAGGGUA,0.54
17,GCUAACGGUCAUAGGCCAUGGAAACUAGGAGCACCAUUUCGCUGCCAGUGAAGAAAUGAACAAAGAAAAUCUGGGCCAGGCAGGCAUCACAAGAAAUAGUCUUGCGCUCAACCAGAAAGUCUGUAAUCAUUUUAAGGGUA,1.23
18,GCUAACGGUCAUAGGCCAUGGAAACUAGGAGCACCAUUUCGCUGCCAGUGAAGAAAUGAACAAAGAAAAUCUGGGCCAGGCAGGCAUCAAAAGAAAUAGUCUUCCGCUCAACCAGAAAGUCUGUAAUCAUUUUAAGGGUA,0.1
19,GCUAACGGUCAUAGGCCAUGGAAACUAGGAGCACCAUUUCGCUGCCAGUGAAGAAAUGAACAAAGAAAAUCUGGGCCAGGCAGGCAUCAAAAGAAAUAGUCUUGCACUCAACCAGAAAGUCUGUAAUCAUUUUAAGGGUA,0.03
20,GCUAACGGUCAUAGGCCAUGGAAACUAGGAGCACCAUUUCGCUGCCAGUGAAGAAAUGAACAAAGAAAAUCUGGGCCAGGCAGGCAUCAAAAGAAAUAGUCUUGCGCUCAACCAGAAAGUCUGUAAUCAUUUUAGGGGUA,1.32
